T1: NagY antiterminator (Enterococcus faecalis, UniProt Q834W3 1-277)
T1 construct: NagY transcriptional antiterminator of Enterococcus faecalis, encoded by nagY (ef1515); source: E. coli M15 pRep4 pQE70-nagY, purified (HisTrap HP)
T1 sequence (looked up): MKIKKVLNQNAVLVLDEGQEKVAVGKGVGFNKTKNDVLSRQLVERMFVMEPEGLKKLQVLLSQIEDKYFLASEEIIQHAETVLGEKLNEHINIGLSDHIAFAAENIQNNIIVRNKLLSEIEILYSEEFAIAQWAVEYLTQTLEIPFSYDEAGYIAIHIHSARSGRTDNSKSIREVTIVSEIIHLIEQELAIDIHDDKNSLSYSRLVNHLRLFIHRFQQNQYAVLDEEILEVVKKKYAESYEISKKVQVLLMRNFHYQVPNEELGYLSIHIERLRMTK

B1: RNase III (fluorescence-labeled, RNase III*) (enzyme, Enterococcus faecalis, UniProt Q82ZG1 1-230, looked up)
chain: MDNQLTTELKERYGIVFHDVNLLEQAFTHSSYVNEHRYLKLSDNERLEFLGDAVLELIVSQYLYLKFPELPEGKLTKMRAAIVREDSLAKFAKECHFDNYILLGKGEEASGGRTRASLLCDLFEAFLGALYLDQKVGAAKKFIEDVIFPKIDAGAFSHEMDHKTQLQEVLQRKGDVSIEYRLIKEEGPAHDRTFFTEVYMNGELIGLGQGKSKKLAEQDAAERALKSIPQ
modifications: Cys-labeled with Red-Maleimide 2nd Generation dye (degree of labeling 0.1 fluorescent tags per protein unit)
notes: RNase III of Enterococcus faecalis, a 26.2 kDa protein encoded by the rnc gene (ef3097); also called ribonuclease RNase III; rnc gene product; source: E. coli M15 pRep4 pQE30-rnc, purified (HisTrap HP)

Key:
[1] = tested on: RNase III (RNase III*);NagY (Enterococcus faecalis V19?;Enterococcus faecalis V19?); assay: spectral shift (Monolith X); settings: RNase III* pre-incubated with NagY (8.5e-6 M), then RNA titrated; 1 mM MgCl2; ES-T buffer: 10 mM Tris pH 8.0, 40 mM NaCl, 10 mM KCl, 1 mM MgCl2, 0.05% Tween-80; room temperature (5 min pre-incubation); RNase III* stock 5e-8 M …
NagY antiterminator = target: T1, NagY antiterminator; assay: other fluorescence titration; spectral shift (670 nm/650 nm) on Monolith X; RNase III* Cys-labeled at 50·10^-9 M, NagY serially diluted 5.2·10^-10 to 1.7·10^-5 M; ES-T buffer pH 8.0 (10 mM Tris, 40 mM NaCl, 10 mM KCl, 1 mM MgCl2, 0.05% Tween-80); independent triplicates; settings: both partners purified

| Molecule | Kd [1] [nM] | Kd (NagY antiterminator) [nM] |
| --- | --- | --- |
| 5' nagY RNA | 580 |  |
| B1 |  | 2500 |

Source: paper PMC12502629, “The NagY antiterminator in Enterococcus faecalis: a novel regulatory mechanism and its impact on cell metabolism” (Microbiology Spectrum, 2025)
